The record followed here is the supplement of paper PMC9732359.

The nature of this series: protein stability index of a GFP-peptide fusion (yeast GPS) (PSI 1-4); higher = more stable; sorted into four equal gates, so the index is relative within each strain. Summed up: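 The protein stability index combines read frequencies across sorting gates, each weighted by its gate number and then summed. To obtain those frequencies, a pooled yeast library of GFP fusions to tiled 17-residue yeast protein peptides, on a plasmid also expressing Cherry, was grown to mid-log phase in leucine-free medium. The cells were sorted into four equal gates by GFP/Cherry ratio before plasmid amplification by PCR and Illumina sequencing.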

± gives the uncertainty stated by the source.

For the sequence EDGLGPLMAKSVKKAGA [ARP7], the protein stability index runs as follows: (pdr5∆) 3.48 ± 0.27; (ubr1∆) 3.27 ± 0.14.

Sequence QRRTNNSGVGSAKGPEI [MED6] had a protein stability index (san1∆) of 3.23 ± 0.19.

Take GAKQTQGGAMNKKSEQA [SRP72]: the protein stability index is 2.77 ± 0.067 (doa10∆), 3.07 ± 0.07 (pdr5∆), 3.26 ± 0.049 (san1∆) and 3.47 ± 0.054 (ubr1∆).

With QRRGPLVVYAEDNGIVK [RPL4A], the protein stability index reads like this: (doa10∆) 3.43 ± 0.11; (pdr5∆) 3.14 ± 0.095; (san1∆) 2.46 ± 0.093; (ubr1∆) 2.68 ± 0.11.

Regarding NYILNFKQSNSETFLQF [CDC53], the protein stability index is 2.57 ± 0.13 (doa10∆), 1.43 ± 0.1 (pdr5∆), 1.77 ± 0.17 (san1∆) and 2.12 ± 0.11 (ubr1∆).

As for AYVVNDTAPKPNIVEID [DLS1], the protein stability index (doa10∆) is 3.26 ± 0.24, the protein stability index (pdr5∆) came out at 3.22 ± 0.19, the protein stability index (san1∆) was found to be 2.97 ± 0.11 and the protein stability index (ubr1∆) was 3.15 ± 0.19.

For VLGIKVKIMRDPAKSRT [RPS3], the protein stability index is, setting by setting: (doa10∆) 2.67 ± 0.067; (pdr5∆) 2.78 ± 0.054; (san1∆) 2.98 ± 0.049; (ubr1∆) 3.16 ± 0.037.

Take LLYELTAFKATVFFLIR [YJL039C/NUP192]: the protein stability index runs as follows: (doa10∆) 2.32 ± 0.071; (pdr5∆) 2.36 ± 0.09; (san1∆) 1.82 ± 0.077; (ubr1∆) 2.43 ± 0.063.

As for NDQDMFTIVSLVQLKKF [YML103C/NUP188], the protein stability index reads like this: (doa10∆) 2.18 ± 0.12; (pdr5∆) 2.84 ± 0.11; (san1∆) 1.93 ± 0.17; (ubr1∆) 2.04 ± 0.14.

Turning to LRFPEHTSSGSVSFKVF [BRR2], the protein stability index (doa10∆) is 1.59 ± 0.055, the protein stability index (pdr5∆) came out at 1.51 ± 0.054, the protein stability index (san1∆) amounted to 1.33 ± 0.1 and the protein stability index (ubr1∆) amounted to 1.57 ± 0.06.

GEANKHHWEDLQKRVIE [RPN5] showed a protein stability index (doa10∆) of 2.98 ± 0.26, a protein stability index (pdr5∆) of 3.4 ± 0.26, a protein stability index (san1∆) of 2.93 ± 0.18 and a protein stability index (ubr1∆) of 3.81 ± 0.27.

In the case of FKFSGTVSSDVFKLNPS [YLR335W/NUP2], the protein stability index (doa10∆) stood at 3 ± 0.29.

Regarding LLEPPAKELQGIDPDET [RPO31], the protein stability index came out at 3.19 ± 0.15 (doa10∆), 3.11 ± 0.14 (pdr5∆), 3.31 ± 0.082 (san1∆) and 3.18 ± 0.12 (ubr1∆).

For the sequence VKEIVLPLFYDLLNAAS [IRR1], the protein stability index by setting is: (doa10∆) 2.36 ± 0.045; (pdr5∆) 2.48 ± 0.052; (san1∆) 2.78 ± 0.036; (ubr1∆) 2.69 ± 0.049.

As to HEFKLIVGKKIQEFLVV [GRR1], the protein stability index (doa10∆) worked out at 2.73 ± 0.046, the protein stability index (pdr5∆) is 2.09 ± 0.062, the protein stability index (san1∆) worked out at 2.38 ± 0.076 and the protein stability index (ubr1∆) was determined as 2.4 ± 0.059.

Turning to ISIFSTPGSVSLSAYNL [PRP8], the protein stability index (doa10∆) is 2.61 ± 0.24, the protein stability index (pdr5∆) was 2.46 ± 0.09 and the protein stability index (ubr1∆) was found to be 1.81 ± 0.22.

PVVRAPTVKYNRKVRAG [RPL13A] yielded a protein stability index (doa10∆) of 1.22 ± 0.1, a protein stability index (pdr5∆) of 2.15 ± 0.14, a protein stability index (san1∆) of 1.98 ± 0.18 and a protein stability index (ubr1∆) of 1.49 ± 0.11.

Where the note is “ubr1∆”, VRIFTKIESEDDYILSG [SRB4] yielded a protein stability index of 2.79 ± 0.092.

Turning to RKSAPVDSWDREFLKVD [SKP1], the protein stability index runs as follows: (doa10∆) 3.25 ± 0.13; (pdr5∆) 3.27 ± 0.094; (san1∆) 3.04 ± 0.1; (ubr1∆) 3.19 ± 0.078.

In turn, SDLNLTDRQKKLLGVDM [YLR018C/POM34] had a protein stability index (doa10∆) of 3.17 ± 0.052, a protein stability index (pdr5∆) of 3.09 ± 0.055, a protein stability index (san1∆) of 3.19 ± 0.039 and a protein stability index (ubr1∆) of 3.23 ± 0.039.

For the sequence ELNVKHVKQCQETCDKL [SMC2], the protein stability index is, setting by setting: (doa10∆) 3 ± 0.18; (pdr5∆) 3.47 ± 0.2; (san1∆) 3.09 ± 0.082; (ubr1∆) 3.31 ± 0.051.

As to MNVSTSTFQTRRRRLKK [RPB4], the protein stability index is, setting by setting: (doa10∆) 3.39 ± 0.2; (pdr5∆) 3.43 ± 0.13; (ubr1∆) 3.38 ± 0.14.

Turning to ETLKRDRKQSQATNATN [ARP7], the protein stability index was 2.69 ± 0.074 (doa10∆), 2.86 ± 0.082 (pdr5∆), 2.39 ± 0.11 (san1∆) and 2.74 ± 0.068 (ubr1∆).

As to DSLKLNSKPVELKPVSL [YJL041W/NSP1], the protein stability index (doa10∆) came to 2.9 ± 0.082, the protein stability index (pdr5∆) amounted to 2.79 ± 0.07, the protein stability index (san1∆) came out at 2.49 ± 0.097 and the protein stability index (ubr1∆) stood at 2.63 ± 0.1.

Take KSEEVKAEDDTGEEEED [RPC37]: the protein stability index (ubr1∆) amounted to 2.95 ± 0.19.

For DYITEAVFKIVLQPLLP [SNU114], the protein stability index is, setting by setting: (doa10∆) 1.44 ± 0.043; (pdr5∆) 1.31 ± 0.066; (san1∆) 1.38 ± 0.089; (ubr1∆) 1.51 ± 0.055.

For the sequence PAEVGRAIRSEKYGKQV [BRR2], the protein stability index runs as follows: (doa10∆) 3.27 ± 0.22; (pdr5∆) 3.15 ± 0.073.

In the case of TPVQPDLSVTPQKSSSK [YAR002W/NUP60], the protein stability index is 3.15 ± 0.04 (doa10∆), 3.15 ± 0.04 (pdr5∆), 3.057 ± 0.026 (san1∆) and 3.093 ± 0.027 (ubr1∆).

Take ITKLHLDKDRKALIQRK [RPL26A]: the protein stability index runs as follows: (doa10∆) 2.1 ± 0.13; (pdr5∆) 1.92 ± 0.094; (san1∆) 2.49 ± 0.16; (ubr1∆) 1.51 ± 0.091.

For LNLKFKEKWPSLELQSF [YML103C/NUP188], the protein stability index reads like this: (doa10∆) 2.72 ± 0.097; (pdr5∆) 2.54 ± 0.14; (san1∆) 1.92 ± 0.11; (ubr1∆) 2.05 ± 0.19.

Regarding KVIKVLGRTGSRGGVTQ [RPS28A], the protein stability index runs as follows: (doa10∆) 3.02 ± 0.073; (pdr5∆) 3.04 ± 0.058; (san1∆) 2.73 ± 0.085; (ubr1∆) 3.12 ± 0.083.

For NLKYLDNSNVMTVKLES [RGR1], the protein stability index is, setting by setting: (doa10∆) 2.23 ± 0.18; (pdr5∆) 1.87 ± 0.11; (san1∆) 2.04 ± 0.19; (ubr1∆) 2.66 ± 0.12.

Sequence SLNEDVEEIKLQKEKEL [SMC2] had a protein stability index (pdr5∆) of 1.83 ± 0.25.

Regarding SPSPILLTSAGCKNGSF [NUT1], the protein stability index was determined as 2.01 ± 0.1 (doa10∆), 2.06 ± 0.052 (pdr5∆), 1.61 ± 0.24 (san1∆) and 2.41 ± 0.073 (ubr1∆).

FIESIVVDFKNKENDNV [SNF12]: the protein stability index reads like this: (doa10∆) 2.55 ± 0.15; (pdr5∆) 3.04 ± 0.18; (ubr1∆) 3.03 ± 0.27.

As for EFISIYSNSHQMAVHIA [RET1], the protein stability index amounted to 3.25 ± 0.11 (doa10∆), 3.45 ± 0.19 (pdr5∆), 3.04 ± 0.11 (san1∆) and 3.11 ± 0.087 (ubr1∆).

With MSSNTSSVMSSPRVEKR [YOR098C/NUP1], the protein stability index (doa10∆) was 3.18 ± 0.084, the protein stability index (pdr5∆) turned out to be 3.18 ± 0.093, the protein stability index (san1∆) is 3.15 ± 0.078 and the protein stability index (ubr1∆) was found to be 3.01 ± 0.088.

For TPANTNNSTSNANTVFS [SWI1], the protein stability index is 2.5 ± 0.057 (doa10∆), 2.75 ± 0.047 (pdr5∆), 2.66 ± 0.04 (san1∆) and 2.931 ± 0.028 (ubr1∆).

TRQFEGRSNEIVKTTTK [PRP8] returned a protein stability index (doa10∆) of 3.14 ± 0.058, a protein stability index (pdr5∆) of 3.12 ± 0.07, a protein stability index (san1∆) of 2.89 ± 0.055 and a protein stability index (ubr1∆) of 3 ± 0.044.

On to SDREMAALIASKVYYNL [RPN2], for which the protein stability index was found to be 1.91 ± 0.06 (doa10∆), 1.83 ± 0.056 (pdr5∆), 1.5 ± 0.055 (san1∆) and 1.7 ± 0.045 (ubr1∆).

Consider IACVLTVINEQQREAVR [RPL35A], for which the protein stability index runs as follows: (doa10∆) 1.73 ± 0.057; (pdr5∆) 2.12 ± 0.068; (san1∆) 2.18 ± 0.08; (ubr1∆) 2.23 ± 0.066.
